# In patent US20200231656A1 (UNIVERSIT T HEIDELBERG, published 2020):
# “And” between values parts separate entries of the source, which are not always exact repeats. Equal entries are not always repeated.
# B1: Nano-26 (VHH)
# VHH: QVQLQESGGGLVQPGGSLRLSCTAPRIIFFMYDVGWYRQAPEKQRELVAQINSDVSTKYADSVKGRFTISRDNAKRTVYLQMNDLKPEDAAVYYCNVRRASADYWGQGTQVTVSS
# notes: also called Nanobody Nano-26; N26; not shown: His-tag implied by detection with an anti-His-tag antibody (pHEN6C vector); its
# Columns and labels:
# [1] = target: T1, norovirus GII.10 VLPs (full-length capsid protein VP1, virus-like particles) (norovirus GII.10 (Vietnam026))
# T1 chain: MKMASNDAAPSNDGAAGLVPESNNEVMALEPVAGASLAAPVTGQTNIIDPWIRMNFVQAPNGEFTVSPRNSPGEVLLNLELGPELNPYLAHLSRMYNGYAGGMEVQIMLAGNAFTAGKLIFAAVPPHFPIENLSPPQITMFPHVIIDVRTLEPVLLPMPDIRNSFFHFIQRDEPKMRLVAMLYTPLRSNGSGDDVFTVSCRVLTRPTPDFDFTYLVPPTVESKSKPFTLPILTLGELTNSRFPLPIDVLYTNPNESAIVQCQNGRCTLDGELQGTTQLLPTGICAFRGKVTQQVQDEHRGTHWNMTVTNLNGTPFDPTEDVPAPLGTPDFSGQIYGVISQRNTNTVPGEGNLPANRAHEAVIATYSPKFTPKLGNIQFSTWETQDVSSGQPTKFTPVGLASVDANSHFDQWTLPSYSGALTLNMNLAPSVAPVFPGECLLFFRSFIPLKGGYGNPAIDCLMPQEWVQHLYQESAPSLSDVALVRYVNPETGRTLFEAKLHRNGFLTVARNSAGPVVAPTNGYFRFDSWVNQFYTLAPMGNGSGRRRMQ
# [2] = target: T2, norovirus GII.4 2006 VLPs (full-length capsid protein VP1, virus-like particles) (norovirus GII.4 (Saga4 2006)); test: blocking ELISA: GII.4 VLPs pretreated with Nano-26, binding to coated PGM
# T2 construct: mature; also called GII.4 VLPs
binder,measurement,setting,value
B1,IC50,[1],6.6 µg/mL and 3.1 µg/mL and 2.6 µg/mL and 4.3 µg/mL
same,IC50,[2],2.4 µg/mL
